Data on 1 molecule can be found in US20160222130A1 (Astellas, published 2016).

Test in all cases: ELISA; Tie2-Fc coated at 1 ug/mL; signal at 100 ng/mL antibody vs convergence value on the parent
(In general: ELISA stands for enzyme-linked immunosorbent assay.)

Assay [1] addresses T1, Human Tie2 (1-452)r2-Fc (human, UniProt Q02763 23-452).
T1 construct: range 1-452
The procedure:
(§1) The next day, the immobilized solution was removed, and the plate was washed with a TBS-T solution, and incubated for 60 minutes by the addition of 50 μL of a Blocker™ Casein in TBS (Thermo Fisher Scientific Inc., 37532) to perform blocking. The resultant was washed with a TBS-T solution, and TIE-1-Igγ1-LALA, diluted with 0.05% Tween 20 (Nacalai Tesque Inc., 28353-85)—containing Blocker™ Casein in TBS from 0.03 ng/mL to 100 ng/mL through eight steps, was added thereto in the amount of 20 μL per well. The resultant was incubated at room temperature for 90 minutes and then washed with a TBS-T solution three times, and 20 μL of a biotin-labeled anti-human kappa light chain antibody, which had been diluted to 0.1 μg/mL with 0.05% Tween 20-containing Blocker™ Casein in TBS, was added thereto. The resultant was incubated at room temperature for 60 minutes and then washed with a TBS-T solution three times, and 20 μL of alkaline phosphatase-labeled streptavidin, which had been diluted to 0.1 μg/mL with 0.05% Tween 20-containing Blocker™ Casein in TBS, was added thereto. The resultant was incubated at room temperature for 60 minutes and then washed with a TBS-T solution three times, and 50 μL of Chemiluminescent Ultra Sensitive AP Microwell and/or Membrane Substrate (450 nm), which had been 5-fold diluted with 1 mM MgCl₂-containing 20 mM TBS (pH 9.8) as a substrate, was added thereto. The resultant was incubated at room temperature under light-shielding for 40 minutes, and then luminescent intensity thereof was measured with an EnVision™ multi-label counter. The EC₅₀ value of TIE-1-Igγ1-LALA with respect to the human Tie2 (1-452)-Fc chimeric protein and 23 mutant proteins thereof were calculated. The relative value of luminescent intensity of 100 ng/mL TIE-1-Igγ1-LALA as maximum concentration point with respect to human Tie2 (1-452)-Fc chimeric protein and 23 mutant proteins thereof when the convergence value of the sigmoid curve of TIE-1-Igγ1-LALA binding to the human Tie2 (1-452)-Fc chimeric protein which was taken as 100% was calculated (Table 8 and Table 9). Further, the EC₅₀ value and the convergence value were calculated by Sigmoid-Emax model non-linear regression analysis.

The target in assay [2] is T2, Human Tie2 (1-452)r3-Fc (human, UniProt Q02763 23-452).
T2 construct: range 1-452
The procedure: as §1

For assay [3], the target named is T3, Human Tie2 (1-452)r4-Fc (human, UniProt Q02763 23-452).
T3 construct: range 1-452
The procedure:
as §1

Assay [4] concerns the target T4, Human Tie2 (1-452)r6-Fc (human, UniProt Q02763 23-452).
T4 construct: range 1-452
How it is done:
as §1

In assay [5] the target is T5, Human Tie2 (1-452)r7-Fc (human, UniProt Q02763 23-452).
T5 construct: range 1-452
The procedure:
as §1

Assay [6] addresses T6, Human Tie2 (1-452)g3-Fc (human, UniProt Q02763 23-452).
T6 construct: range 1-452
How it is done: as §1

In assay [7] the target is T7, Human Tie2 (1-452)g4-Fc (human, UniProt Q02763 23-452).
T7 construct: range 1-452
How it is done: as §1

The target of assay [8] is T8, Human Tie2 (1-452)g5-Fc (human, UniProt Q02763 23-452).
T8 construct: range 1-452
The procedure: as §1

Assay [9] has as its target T9, Human Tie2 (1-452)m3-Fc (human, UniProt Q02763 23-452).
T9 construct: range 1-452
How it is done:
as §1

In assay [10] the target is T10, Human Tie2 (1-452)A1-Fc (human, UniProt Q02763 23-452).
T10 construct: range 1-452
How it is done: as §1

Assay [11] addresses T11, Human Tie2 (1-452)A2-Fc (human, UniProt Q02763 23-452).
T11 construct: range 1-452
How it is done:
as §1

Assay [12] addresses T12, Human Tie2 (1-452)A3-Fc (human, UniProt Q02763 23-452).
T12 construct: range 1-452
How it is done:
as §1

The target in assay [13] is T13, Human Tie2 (1-452)A4-Fc (human, UniProt Q02763 23-452).
T13 construct: range 1-452
The procedure:
as §1

Assay [14] has as its target T14, Human Tie2 (1-452)A5-Fc (human, UniProt Q02763 23-452).
T14 construct: range 1-452
The procedure: as §1

The target of assay [15] is T15, Human Tie2 (1-452)A6-Fc (human, UniProt Q02763 23-452).
T15 construct: range 1-452
The procedure: as §1

Assay [16] deals with T16, human Tie2 (1-452)-Fc chimeric protein (human, UniProt Q02763 23-452).
T16 construct: range 1-452; The stated range 1-452 begins at residue 1 of the precursor
The procedure:
as §1

T2 sequence (Q02763 other isoform, or with tags, fused parts or gaps limits assumed, form in doubt): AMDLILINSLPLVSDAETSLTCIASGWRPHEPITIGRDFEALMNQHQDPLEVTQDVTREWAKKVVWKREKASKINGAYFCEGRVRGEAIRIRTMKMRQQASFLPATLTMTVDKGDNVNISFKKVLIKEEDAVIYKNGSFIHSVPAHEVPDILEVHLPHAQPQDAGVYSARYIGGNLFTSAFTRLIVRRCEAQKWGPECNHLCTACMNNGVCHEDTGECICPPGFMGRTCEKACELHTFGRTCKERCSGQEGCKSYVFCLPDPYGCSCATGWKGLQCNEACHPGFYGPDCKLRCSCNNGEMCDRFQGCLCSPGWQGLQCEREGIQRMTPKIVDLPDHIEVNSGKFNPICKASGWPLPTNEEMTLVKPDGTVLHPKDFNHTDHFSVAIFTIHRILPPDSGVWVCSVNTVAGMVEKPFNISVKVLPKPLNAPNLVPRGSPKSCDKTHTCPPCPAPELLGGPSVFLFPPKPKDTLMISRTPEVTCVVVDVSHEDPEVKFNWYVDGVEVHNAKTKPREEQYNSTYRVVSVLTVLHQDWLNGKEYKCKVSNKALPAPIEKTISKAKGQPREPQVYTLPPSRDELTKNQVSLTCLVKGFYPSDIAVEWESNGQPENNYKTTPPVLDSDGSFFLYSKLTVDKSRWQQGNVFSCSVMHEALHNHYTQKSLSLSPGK
T14 sequence (Q02763 other isoform, or with tags, fused parts or gaps limits assumed, form in doubt): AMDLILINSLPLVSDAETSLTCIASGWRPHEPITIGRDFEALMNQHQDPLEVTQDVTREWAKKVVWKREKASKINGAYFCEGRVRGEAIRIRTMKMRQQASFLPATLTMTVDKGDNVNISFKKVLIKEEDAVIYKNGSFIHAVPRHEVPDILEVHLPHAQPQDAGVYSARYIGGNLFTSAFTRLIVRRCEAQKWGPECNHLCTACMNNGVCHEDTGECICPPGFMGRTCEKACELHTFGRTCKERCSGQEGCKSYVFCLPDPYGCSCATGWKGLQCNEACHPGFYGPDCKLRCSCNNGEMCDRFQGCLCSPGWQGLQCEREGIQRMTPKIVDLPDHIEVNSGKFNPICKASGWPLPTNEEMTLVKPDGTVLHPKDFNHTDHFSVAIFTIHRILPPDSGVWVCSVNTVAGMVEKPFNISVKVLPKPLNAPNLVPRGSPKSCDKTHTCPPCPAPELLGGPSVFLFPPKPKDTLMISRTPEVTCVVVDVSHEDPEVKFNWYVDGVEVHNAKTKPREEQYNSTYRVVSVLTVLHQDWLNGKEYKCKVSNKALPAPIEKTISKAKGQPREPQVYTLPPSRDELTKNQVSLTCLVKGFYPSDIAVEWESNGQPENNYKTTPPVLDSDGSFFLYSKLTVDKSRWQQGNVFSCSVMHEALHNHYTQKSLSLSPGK
T9 sequence (Q02763 other isoform, or with tags, fused parts or gaps limits assumed, form in doubt): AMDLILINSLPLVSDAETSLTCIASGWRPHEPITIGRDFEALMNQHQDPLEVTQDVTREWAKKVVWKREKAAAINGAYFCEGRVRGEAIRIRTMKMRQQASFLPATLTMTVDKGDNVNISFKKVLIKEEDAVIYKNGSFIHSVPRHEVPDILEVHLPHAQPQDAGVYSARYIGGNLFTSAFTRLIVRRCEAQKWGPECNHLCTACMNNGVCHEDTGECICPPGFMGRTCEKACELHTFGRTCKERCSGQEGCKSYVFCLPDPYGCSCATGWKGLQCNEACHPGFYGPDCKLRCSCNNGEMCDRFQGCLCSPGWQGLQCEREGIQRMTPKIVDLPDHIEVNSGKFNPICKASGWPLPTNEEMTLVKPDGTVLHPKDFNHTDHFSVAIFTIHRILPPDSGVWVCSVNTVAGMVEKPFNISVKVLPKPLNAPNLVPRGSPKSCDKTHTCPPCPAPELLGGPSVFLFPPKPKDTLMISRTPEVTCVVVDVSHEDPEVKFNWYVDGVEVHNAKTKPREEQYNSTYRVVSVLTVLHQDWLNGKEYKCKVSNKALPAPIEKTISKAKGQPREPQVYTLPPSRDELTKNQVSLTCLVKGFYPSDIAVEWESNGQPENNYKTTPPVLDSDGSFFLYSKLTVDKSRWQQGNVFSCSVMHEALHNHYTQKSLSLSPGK
T1 sequence (Q02763 other isoform, or with tags, fused parts or gaps limits assumed, form in doubt): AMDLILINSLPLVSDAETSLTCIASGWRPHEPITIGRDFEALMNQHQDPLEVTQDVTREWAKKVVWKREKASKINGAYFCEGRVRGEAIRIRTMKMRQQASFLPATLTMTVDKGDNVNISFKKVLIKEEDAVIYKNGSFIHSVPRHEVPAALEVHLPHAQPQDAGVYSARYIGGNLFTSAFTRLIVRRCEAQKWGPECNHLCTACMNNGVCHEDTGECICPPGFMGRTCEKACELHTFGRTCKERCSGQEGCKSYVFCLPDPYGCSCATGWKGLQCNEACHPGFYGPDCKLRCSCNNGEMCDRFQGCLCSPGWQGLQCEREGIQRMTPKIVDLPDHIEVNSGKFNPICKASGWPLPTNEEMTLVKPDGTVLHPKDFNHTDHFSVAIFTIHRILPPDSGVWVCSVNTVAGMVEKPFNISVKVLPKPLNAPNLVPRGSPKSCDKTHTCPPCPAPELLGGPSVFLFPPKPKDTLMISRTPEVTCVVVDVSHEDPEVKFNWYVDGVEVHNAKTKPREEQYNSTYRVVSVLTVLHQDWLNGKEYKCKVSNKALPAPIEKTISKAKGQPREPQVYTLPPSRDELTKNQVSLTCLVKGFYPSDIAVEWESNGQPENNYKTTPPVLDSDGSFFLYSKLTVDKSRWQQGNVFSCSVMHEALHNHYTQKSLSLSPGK
T7 sequence (Q02763 other isoform, or with tags, fused parts or gaps limits assumed, form in doubt): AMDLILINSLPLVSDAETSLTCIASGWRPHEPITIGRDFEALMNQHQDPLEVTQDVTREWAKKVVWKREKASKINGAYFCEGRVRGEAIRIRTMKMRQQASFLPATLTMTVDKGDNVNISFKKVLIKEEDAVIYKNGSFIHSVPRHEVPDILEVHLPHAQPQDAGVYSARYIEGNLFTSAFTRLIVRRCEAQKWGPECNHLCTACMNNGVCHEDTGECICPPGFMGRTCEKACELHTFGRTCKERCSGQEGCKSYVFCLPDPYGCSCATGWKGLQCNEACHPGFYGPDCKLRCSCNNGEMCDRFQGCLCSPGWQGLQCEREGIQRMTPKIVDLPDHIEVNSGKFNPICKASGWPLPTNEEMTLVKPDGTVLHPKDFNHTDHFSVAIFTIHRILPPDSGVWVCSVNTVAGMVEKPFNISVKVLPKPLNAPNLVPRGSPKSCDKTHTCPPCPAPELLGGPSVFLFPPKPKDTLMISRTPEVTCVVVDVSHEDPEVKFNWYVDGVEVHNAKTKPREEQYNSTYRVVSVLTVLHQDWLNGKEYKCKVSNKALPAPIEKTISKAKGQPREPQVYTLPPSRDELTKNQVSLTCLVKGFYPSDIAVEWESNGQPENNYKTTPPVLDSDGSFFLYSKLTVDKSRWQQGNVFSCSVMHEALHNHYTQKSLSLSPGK
T8 sequence (Q02763 other isoform, or with tags, fused parts or gaps limits assumed, form in doubt): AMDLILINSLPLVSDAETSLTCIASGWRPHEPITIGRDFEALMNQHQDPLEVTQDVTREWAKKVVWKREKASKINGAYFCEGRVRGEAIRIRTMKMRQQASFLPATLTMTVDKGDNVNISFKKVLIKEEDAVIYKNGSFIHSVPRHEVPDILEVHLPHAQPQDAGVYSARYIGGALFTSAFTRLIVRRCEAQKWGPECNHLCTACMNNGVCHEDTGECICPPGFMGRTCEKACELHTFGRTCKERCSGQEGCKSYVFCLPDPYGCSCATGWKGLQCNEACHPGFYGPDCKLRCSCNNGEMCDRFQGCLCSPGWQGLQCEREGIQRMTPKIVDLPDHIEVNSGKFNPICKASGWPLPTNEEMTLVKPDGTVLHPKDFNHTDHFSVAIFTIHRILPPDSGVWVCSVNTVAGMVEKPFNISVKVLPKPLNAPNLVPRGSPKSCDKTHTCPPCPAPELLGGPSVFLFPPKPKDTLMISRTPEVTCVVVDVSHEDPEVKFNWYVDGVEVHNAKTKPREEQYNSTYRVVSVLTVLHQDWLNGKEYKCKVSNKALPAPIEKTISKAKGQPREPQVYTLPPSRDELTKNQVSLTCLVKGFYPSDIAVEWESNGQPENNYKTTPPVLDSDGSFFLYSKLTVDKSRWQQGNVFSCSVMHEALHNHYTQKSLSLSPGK

B1: TIE-1-Igγ1-LALA (antibody, human IgG1, kappa, L234A L235A)
heavy: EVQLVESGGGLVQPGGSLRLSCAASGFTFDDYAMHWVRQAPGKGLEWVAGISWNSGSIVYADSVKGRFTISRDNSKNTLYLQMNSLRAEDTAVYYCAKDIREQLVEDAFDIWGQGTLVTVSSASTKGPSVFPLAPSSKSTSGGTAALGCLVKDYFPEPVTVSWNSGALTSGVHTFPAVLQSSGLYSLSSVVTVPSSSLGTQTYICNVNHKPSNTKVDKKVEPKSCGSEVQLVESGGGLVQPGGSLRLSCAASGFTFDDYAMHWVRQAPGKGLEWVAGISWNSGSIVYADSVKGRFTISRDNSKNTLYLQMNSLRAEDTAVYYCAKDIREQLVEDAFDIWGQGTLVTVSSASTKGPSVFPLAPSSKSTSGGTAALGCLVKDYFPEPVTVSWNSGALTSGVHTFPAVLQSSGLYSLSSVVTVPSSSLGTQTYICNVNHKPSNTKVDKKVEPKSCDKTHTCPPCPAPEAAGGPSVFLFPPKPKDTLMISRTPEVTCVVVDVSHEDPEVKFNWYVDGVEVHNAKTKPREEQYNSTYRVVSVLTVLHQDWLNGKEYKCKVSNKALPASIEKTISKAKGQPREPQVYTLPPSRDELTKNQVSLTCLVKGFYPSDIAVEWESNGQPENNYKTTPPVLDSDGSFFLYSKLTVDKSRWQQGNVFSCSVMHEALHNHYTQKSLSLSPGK
light: DIQMTQSPSSLSASVGDRVTITCRSSQSLLHSHRYNYLDWYQQKPGKAPKLLIYLGSNRASGVPSRFSGSGSGTDFTLTISSVQPEDFATYYCMQTLQTPLTFGQGTKVEIKRTVAAPSVFIFPPSDEQLKSGTASVVCLLNNFYPREAKVQWKVDNALQSGNSQESVTEQDSKDSTYSLSSTLTLSKADYEKHKVYACEVTHQGLSSPVTKSFNRGEC
notes: Tandem tetravalent format: two heavy chains (VH-CH1-linker-VH-CH1-CH2-CH3) and four light chains; also called tetravalent anti-human Tie2 antibody with L234A, L235A and P331S
Consider B1, for which the “Relative value (%) of luminescent intensity” value (from here on “Relative value (%)”) is 96% in assay [1]; 102% in assay [2]; 101% in [3]; 100% in assay [4]; 100% in assay [5]; 96% in assay [6]. Further, the “Relative value (%)” value amounted to 53% in assay [7]; 91% in assay [8]; 103% in assay [9]; 90% in assay [10]; 95% in assay [11]; 98% in [12]. Also, the “Relative value (%)” value was 100% in assay [13], 98% in assay [14], 99% in [15] and 98% in assay [16].
